Results taken from article PMC7092707 (Biotechniques, 2019).

Target: adenosine A2A receptor (human (endogenous in postmortem ventral …, UniProt P29274 1-412))
Assay: proximity ligation

Sequence of adenosine A2A receptor (human (P29274 whole entry): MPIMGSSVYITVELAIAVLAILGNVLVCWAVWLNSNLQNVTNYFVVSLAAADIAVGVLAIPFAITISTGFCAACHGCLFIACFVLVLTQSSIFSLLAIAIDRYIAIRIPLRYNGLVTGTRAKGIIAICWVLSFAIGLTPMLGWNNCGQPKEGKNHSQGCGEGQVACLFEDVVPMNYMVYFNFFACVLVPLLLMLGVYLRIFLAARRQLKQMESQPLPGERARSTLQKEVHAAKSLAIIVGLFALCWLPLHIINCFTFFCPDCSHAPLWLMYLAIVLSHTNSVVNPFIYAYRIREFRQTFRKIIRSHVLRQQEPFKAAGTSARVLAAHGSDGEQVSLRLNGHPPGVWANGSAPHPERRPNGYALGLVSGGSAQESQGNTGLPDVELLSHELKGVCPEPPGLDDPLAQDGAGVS

B1: dopamine receptor type 2 (receptor, UniProt P14416 1-443, looked up)
chain: MDPLNLSWYDDDLERQNWSRPFNGSDGKADRPHYNYYATLLTLLIAVIVFGNVLVCMAVSREKALQTTTNYLIVSLAVADLLVATLVMPWVVYLEVVGEWKFSRIHCDIFVTLDVMMCTASILNLCAISIDRYTAVAMPMLYNTRYSSKRRVTVMISIVWVLSFTISCPLLFGLNNADQNECIIANPAFVVYSSIVSFYVPFIVTLLVYIKIYIVLRRRRKRVNTKRSSRAFRAHLRAPLKGNCTHPEDMKLCTVIMKSNGSFPVNRRRVEAARRAQELEMEMLSSTSPPERTRYSPIPPSHHQLTLPDPSHHGLHSTPDSPAKPEKNGHAKDHPKIAKIFEIQTMPNGKTRTSLKTMSRRKLSQQKEKKATQMLAIVLGVFIICWLPFFITHILNIHCDCNIPPVLYSAFTWLGYVNSAVNPIIYTTFNIEFRKAFLKILHC
fraction of D2R-A2AR complex relative to total A2AR (PLA puncta): 12.3 ± 1.8% | fraction of D2R-A2AR complex relative to total D2R (PLA puncta): 13.4 ± 5.3%
